Data as given in patent publication US20140099313A1.

Tests used:
[1] = biological target: human IL-13 wild type (human) (UniProt P35225); assay: competition, cell surface RBA: IL-13 to IL-13Rα2 on COS cells
[2] = biological target: human IL-13 wild type (human) (UniProt P35225); assay: competition, ELISA RBA: IL-13 to IL-13Rα2/Fc

Chain of human IL-13 wild type (human) (P35225 other isoform, or with tags, fused parts or gaps limits assumed): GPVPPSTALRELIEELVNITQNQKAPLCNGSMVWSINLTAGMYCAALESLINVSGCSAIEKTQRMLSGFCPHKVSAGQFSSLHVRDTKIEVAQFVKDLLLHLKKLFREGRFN

B1: MJ2-7 (antibody, from another filing, V domains shown)
VH: EVQLQQSGAELVKPGASVKLSCTGSGFNIKDTYIHWVKQRPEQGLEWIGRIDPANDNIKYDPKFQGKATITADTSSNTAYLQLNSLTSEDTAVYYCARSEENWYDFFDYWGQGTTLTVSS
VL: DVLMTQTPLSLPVSLGDQASISCRSSQSIVHSNGNTYLEWYLQKPGQSPKLLIYKVSNRFSGVPDRFSGSGSGTDFTLKISRVEAEDLGVYYCFQGSHIPYTFGGGTKLEIK
- percent inhibition at 100 nM [1]: 70%
- percent inhibition at 100 nM [2]: 60%
